The series addresses GST-NSD2-SET (Homo sapiens, UniProt O96028 941-1240). The series is described as follows: EMSA.

This is an account of results in publication PMC2797197.

GST-NSD2-SET, sequence (O96028 941-1240): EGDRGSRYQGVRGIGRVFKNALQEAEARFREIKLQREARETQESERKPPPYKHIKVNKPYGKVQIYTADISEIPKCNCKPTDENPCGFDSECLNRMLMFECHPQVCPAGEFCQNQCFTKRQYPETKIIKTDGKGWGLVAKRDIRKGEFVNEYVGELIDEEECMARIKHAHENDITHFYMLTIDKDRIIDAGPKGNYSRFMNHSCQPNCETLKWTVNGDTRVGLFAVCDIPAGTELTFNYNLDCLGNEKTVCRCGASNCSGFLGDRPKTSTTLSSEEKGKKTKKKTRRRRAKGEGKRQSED

B1: 41-bp dsDNA (dsDNA)
DNA 1: CTCTCTTTGAGGACACCAACCTGGCGGCCATCCACGCCAAG
DNA 2: CTTGGCGTGGATGGCCGCCAGGTTGGTGTCCTCAAAGAGAG
With B1, the binding result is listed as “binds”.
